Test results reported in patent publication US7786083B2, “Metastin derivatives and use thereof” (Takeda Pharmaceutical Company Limited, priority 2006, dated 2010).
Blank lines part the entries; values can stand above or below the molecule they belong to. *1 amine or outer side, *2 acyl side, *3 side chain or, on linkers, in order; H or OH if unused. Where a SMILES comes first, the peptide text is derived from it. [ ]: non-standard residue; d: D form. Ser(Me) = O-methylserine, COC[C@H](N[*:1])C(=O)[*:2]; Arg(Me) = CNC(=N)NCCC[C@H](N)C(=O)O; Dap(CONH2) = NC(=O)NC[C@H](N)C(=O)O; Ala(cPr) = N[C@@H](CC1CC1)C(=O)O; Hyp = O=C(O)[C@@H]1C[C@@H](O)CN1; 4Pal = N[C@@H](Cc1ccncc1)C(=O)O; Cha = N[C@@H](CC1CCCCC1)C(=O)O; Cba = N[C@@H](CC1CCC1)C(=O)O; Nle = CCCC[C@H](N)C(=O)O

Tests used:
[1] = tested on: metastin receptors; assay: Measurement of agonist activity by assaying changes in intracellular calcium ion level (FLIPR, Fluo-4 NW); assay type: cell-based, human; conditions: specific activity of the EC50 of a test compound based on the EC50 of Metastin (45-54), metastin receptor expression CHO cells
Procedure: 1) Preparation of Human Metastin and Rat Metastin Stable Expression Cell Lines
Human metastin and rat metastin stable expression cell lines were obtained by transfecting the expression plasmid for animal cells into CHO/dhfr^− cells using CellPhect Transfection Kit (manufactured by GE Healthcare). First, 240 μL of Buffer A (attached to CellPhect Transfection Kit) was added to 9.6 μg of plasmid DNA dissolved in 240 μL of distilled water followed by stirring. After the mixture was settled for 10 minutes, 480 μL of Buffer B (attached to CellPhect Transfection Kit) was added to the mixture, which was vigorously stirred to form liposomes containing the DNA. Then, 4×10^5 CHO/dhfr^− cells (obtained from ATCC) were inoculated on a 60 mm Petri dish. After culturing the cells in Ham's F-12 medium (manufactured by Nissui Seiyaku Co., Ltd.) supplemented with 10% fetal bovine serum (manufactured by BIO […], Inc.) at 37° C. for 2 days in 5% carbon dioxide gas, […] of the liposomes were dropwise added to the cells on the Petri dish. After culturing the cells in a CO2 incubator (5% CO2, 37° C.) for 6 hours, the cells were washed twice with serum-free Ham's F-12 medium and 3 mL of 15% glycerol was added to the cells on the Petri dish followed by treatment for 2 minutes. The cells were again washed twice with serum-free Ham's F-12 medium followed by incubation in Ham's F-12 medium supplemented with 10% fetal bovine serum in a CO2 incubator (5% CO2, 37° C.) for 15 hours. The cells were dispersed by trypsin treatment to recover from the Petri dish. The recovered cells were inoculated on a 6-well plate in 1.25×10^4 cells each/well and incubation was initiated in a CO2 incubator (5% CO2, 37° C.) in Dulbecco's modified Eagle medium (DMEM, manufactured by Nissui Seiyaku) containing 10% dialyzed fetal bovine serum (manufactured by JRH BIOSCIENCES, Inc.). The plasmid-transfected CHO transformants grew in the medium but the non-transfected cells gradually died, accordingly the medium was exchanged on Days 1 and 2 after the initiation of incubation to remove the dead cells. Approximately 20 colonies of the CHO transformants that kept growing on Days 8 to 10 after the incubation were isolated. From the cells in these colonies, cells showing high reactivity with the ligand peptide metastin (hereinafter merely referred to as h175 KB19 and h175 KB29 strains) were selected to provide for the following experiment.
Human metastin expression CHO cell line (h175 KB19 strain is described in a separate section) and rat metastin expression CHO cell line (h175 KB29 strain is described in a separate section) were seeded in a 96-well plate (type 3904, manufactured by Corning) at 3×10^4 cells/well, followed by incubation in a CO2 incubator (5% CO2, 37° C.) for 24 hours. For the medium, MEMα medium (nucleic acid-free, manufactured by Nikken Bio Medical Laboratory) supplemented with dialyzed 10% fetal bovine serum (manufactured by Thermo, MultiSer) was used.
3) Loading with Fluo-4 NW in Cells
As an assay buffer, 1× Hanks' balanced salt solution (HBSS, manufactured by GIBCO) supplemented with 0.1% BSA, 20 mM HEPES (pH 7.4, manufactured by GIBCO) and 1 mM Probenecid (manufactured by Molecular Probes) was prepared. The medium in the wells of the cell-seeded plate was removed and 100 μL each of the assay buffer (kept warm at 37° C.) was added to each well. After 10 mL of the assay buffer (the volume for assaying two plates) was charged in one Fluo-4NW dye mix (Component A, Fluo-4 NW calcium assay kit (starter pack), manufactured by Molecular Probes) bottle, the mixture was gently stirred to prepare the Fluo-4 NW loading solution. This loading solution was charged in each well by 50 μl each and reacted in a CO2 incubator (5% CO2, 37° C.) for 30 minutes for loading with Fluo-4 NW into the cells. Subsequently, the cells were settled at room temperature (25° C.) for 15 minutes and then used for assay.
4) Measurement of Agonist Activity […]

[2] = target: metastin receptor (OT7T175) stably expressed on CHO/dhfr- cells (human or rat, not given); assay: cell-based or functional assay

Molecule: CNC(=N)NCCC[C@H](NC(=O)[C@H](CC(C)C)NC(=O)CNC(=O)[C@H](Cc1ccncc1)NC(=O)[C@@H](NC(=O)[C@H](CC(N)=O)NC(=O)[C@@H]1C[C@@H](O)CN1C(=O)[C@@H](Cc1ccc(O)cc1)NC(C)=O)[C@@H](C)O)C(=O)N[C@@H](Cc1c[nH]c2ccccc12)C(N)=O [Compound No. 849, des(1)-Ac-[D-Tyr2,Hyp3,Thr5,Pya(4)6,Arg(Me)9,Trp10]MS10] (Ac-[dY][Hyp]NT[4Pal]GL[Arg(Me)]W-NH2)
Specific Activity [1]: 0.9

Molecule: CC(=O)N[C@H](Cc1ccc(O)cc1)C(=O)N1C[C@H](O)C[C@H]1C(=O)N[C@@H](CC(N)=O)C(=O)N[C@H](C(=O)N[C@@H](CC1CCCCC1)C(=O)NCC(=O)N[C@@H](CC1CC1)C(=O)N[C@@H](CCCNC(=N)N)C(=O)N[C@@H](Cc1c[nH]c2ccccc12)C(N)=O)[C@@H](C)O [Compound No. 940, des(1)-Ac-[D-Tyr2,Hyp3,Thr5,Cha6,Ala(cPr)8,Trp10]MS10] (Ac-[dY][Hyp]NT[Cha]G[Ala(cPr)]RW-NH2)
Specific Activity [1]: 0.5

B3: des(1)-Ac-[D-Tyr2,Glu3,Thr5,Cha6,Ala(cPr)8,Trp10]MS10 (peptide)
peptide: Ac-[dY]ENT[Cha]G[Ala(cPr)]RW-NH2
SMILES: CC(=O)N[C@H](Cc1ccc(O)cc1)C(=O)N[C@@H](CCC(=O)O)C(=O)N[C@@H](CC(N)=O)C(=O)N[C@H](C(=O)N[C@@H](CC1CCCCC1)C(=O)NCC(=O)N[C@@H](CC1CC1)C(=O)N[C@@H](CCCNC(=N)N)C(=O)N[C@@H](Cc1c[nH]c2ccccc12)C(N)=O)[C@@H](C)O
Specific Activity (EC50 of test compound based on EC50 of Metastin (45-54)); agonist activity, intracellular calcium ion level, FLIPR (ratio to Metastin (45-54)) [2]: 0.4

B6: des(1)-Ac-[D-Tyr2,Hyp3,Alb4,Ala5,Cha6,Ala(cPr)8,Arg(Me)9,Trp10]MS10 (peptide)
peptide: Ac-[dY][Hyp][Dap(CONH2)]A[Cha]G[Ala(cPr)][Arg(Me)]W-NH2
Specific Activity (EC50 of test compound based on EC50 of Metastin (45-54)); agonist activity, intracellular calcium ion level, FLIPR (ratio to Metastin (45-54)) [2]: 0.5

The next lines start with the values.

Specific Activity (EC50 of test compound based on EC50 of Metastin (45-54)); agonist activity, intracellular calcium ion level, FLIPR (ratio to Metastin (45-54)) [2]: 1.2
B1: des(1)-Ac-[D-Tyr2,Hyp3,Thr5,Ser(Me)7,Arg(Me)9,Trp10]MS10 (peptide)
peptide: Ac-[dY][Hyp]NTF[Ser(Me)]L[Arg(Me)]W-NH2

Specific Activity (EC50 of test compound based on EC50 of Metastin (45-54)); agonist activity, intracellular calcium ion level, FLIPR (ratio to Metastin (45-54)) [2]: 0.6
B2: des(1)-Ac-[D-Tyr2,Hyp3,Thr5,Cha6,Nle8,Arg(Me)9,Trp10]MS10 (peptide)
peptide: Ac-[dY][Hyp]NT[Cha]G[Nle][Arg(Me)]W-NH2
SMILES: CCCC[C@H](NC(=O)CNC(=O)[C@H](CC1CCCCC1)NC(=O)[C@@H](NC(=O)[C@H](CC(N)=O)NC(=O)[C@@H]1C[C@@H](O)CN1C(=O)[C@@H](Cc1ccc(O)cc1)NC(C)=O)[C@@H](C)O)C(=O)N[C@@H](CCCNC(=N)NC)C(=O)N[C@@H](Cc1c[nH]c2ccccc12)C(N)=O

Specific Activity (EC50 of test compound based on EC50 of Metastin (45-54)); agonist activity, intracellular calcium ion level, FLIPR (ratio to Metastin (45-54)) [2]: 0.7
B4: des(1)-Ac-[D-Tyr2,Hyp3,Alb4,Gly5,Cha6,Ala(cPr)8,Arg(Me)9,Trp10]MS10 (peptide)
peptide: Ac-[dY][Hyp][Dap(CONH2)]G[Cha]G[Ala(cPr)][Arg(Me)]W-NH2

Specific Activity (EC50 of test compound based on EC50 of Metastin (45-54)); agonist activity, intracellular calcium ion level, FLIPR (ratio to Metastin (45-54)) [2]: 1.1
B5: des(1)-Ac-[D-Tyr2,Hyp3,Thr5,Cha6,Gly7Ψ(CH2CH2)Leu8,Trp10]MS10 (peptide)
peptide: Ac-[dY][Hyp]NT[Cha]GLRW-NH2
modifications: also: Gly6-Leu7 -CONH- replaced by -CH2CH2-

Specific Activity (EC50 of test compound based on EC50 of Metastin (45-54)); agonist activity, intracellular calcium ion level, FLIPR (ratio to Metastin (45-54)) [2]: 0.7
B7: des(1)-Ac-[D-Tyr2,Hyp3,Thr5,Ala(cBu)6,Ala(cPr)8,Arg(Me)9,Trp10]MS10 (peptide)
peptide: Ac-[dY][Hyp]NT[Cba]G[Ala(cPr)][Arg(Me)]W-NH2
